From patent US20220088146A1 (PALATIN TECHNOLOGIES, published 2022)
Numbered stars: 1 amine (or outer) side, 2 acyl side, 3 side chain; on linkers, the order of the positions; unused ones are H or OH. Bridge positions count the residues as written; N and C are the ends. Square brackets hold non-standard residues; d marks the D form. * marks the point of attachment. Cyclohexanecarbonyl = O=C(C1CCCCC1)*; Cyclohexylacetyl = O=C(CC1CCCCC1)*; Cyclopentylacetyl = O=C(CC1CCCC1)*; Cyclopropanecarbonyl = O=C(C1CC1)*; Hydrocinnamoyl = O=C(CCc1ccccc1)*; Suc = O=C(CCC(=O)[*:2])[*:1]; Heptanoyl = CCCCCCC(=O)*; Nle = CCCC[C@H](N)C(=O)O; Dab = NCC[C@H](N)C(=O)O; Dap = NC[C@H](N)C(=O)O; Hexanoyl = CCCCCC(=O)*; Pentanoyl = CCCCC(=O)*; PhAc = O=C(Cc1ccccc1)*; Butyryl = CCCC(=O)*

What was measured:
[1] = molecular target: melanocortin-5 receptor (UniProt P33032 1-325); assay: cell-based or functional assay
Sequence of melanocortin-5 receptor (P33032 whole entry): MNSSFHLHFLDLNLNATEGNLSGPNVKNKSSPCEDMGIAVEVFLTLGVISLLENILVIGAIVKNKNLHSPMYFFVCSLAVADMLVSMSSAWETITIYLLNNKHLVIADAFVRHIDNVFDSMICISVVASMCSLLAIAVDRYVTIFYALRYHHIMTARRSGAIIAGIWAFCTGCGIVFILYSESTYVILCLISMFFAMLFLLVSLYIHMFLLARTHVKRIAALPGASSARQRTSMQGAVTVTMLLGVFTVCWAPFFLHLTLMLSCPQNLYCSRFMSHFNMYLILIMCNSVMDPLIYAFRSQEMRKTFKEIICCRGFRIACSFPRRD

[2] = molecular target: melanocortin-3 receptor (UniProt P41968 1-323); assay: cell-based or functional assay
Sequence of melanocortin-3 receptor (P41968 whole entry): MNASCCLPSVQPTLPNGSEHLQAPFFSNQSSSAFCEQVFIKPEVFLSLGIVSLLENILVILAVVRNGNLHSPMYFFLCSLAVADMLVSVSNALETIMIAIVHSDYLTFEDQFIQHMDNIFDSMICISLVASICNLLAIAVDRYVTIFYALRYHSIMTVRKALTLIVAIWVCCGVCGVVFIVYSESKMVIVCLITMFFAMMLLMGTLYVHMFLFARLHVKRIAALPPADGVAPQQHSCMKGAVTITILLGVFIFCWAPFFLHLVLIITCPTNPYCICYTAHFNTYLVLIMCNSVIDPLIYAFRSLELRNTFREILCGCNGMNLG

[3] = molecular target: melanocortin-2 receptor (UniProt Q01718 1-297); assay: cell-based or functional assay
Sequence of melanocortin-2 receptor (Q01718 whole entry): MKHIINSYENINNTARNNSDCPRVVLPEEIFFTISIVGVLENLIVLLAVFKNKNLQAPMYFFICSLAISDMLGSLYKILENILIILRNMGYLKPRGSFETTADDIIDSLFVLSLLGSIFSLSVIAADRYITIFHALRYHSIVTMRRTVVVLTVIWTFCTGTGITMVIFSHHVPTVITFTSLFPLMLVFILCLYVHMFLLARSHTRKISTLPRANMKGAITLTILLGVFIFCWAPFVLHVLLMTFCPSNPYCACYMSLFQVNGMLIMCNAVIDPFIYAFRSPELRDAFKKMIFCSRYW

[4] = molecular target: T1, human melanocortin-1 receptor (human, UniProt Q01726 1-317); assay: cell-based or functional assay
T1 sequence (Q01726 whole entry): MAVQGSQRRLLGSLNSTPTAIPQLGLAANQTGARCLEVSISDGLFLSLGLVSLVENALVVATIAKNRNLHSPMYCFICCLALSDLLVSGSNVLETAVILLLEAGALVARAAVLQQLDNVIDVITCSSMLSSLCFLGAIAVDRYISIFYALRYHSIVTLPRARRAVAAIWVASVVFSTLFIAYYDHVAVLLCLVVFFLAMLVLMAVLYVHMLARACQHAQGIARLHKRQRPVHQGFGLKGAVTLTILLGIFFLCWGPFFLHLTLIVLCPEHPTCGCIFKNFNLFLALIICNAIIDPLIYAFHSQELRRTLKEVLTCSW

[5] = molecular target: T2, human melanocortin-4 receptor (human, UniProt P32245 1-332); assay: [I125]-NDP-α-MSH competition, hMC4r HEK-293 membranes
T2 construct: whole, on cells; Ki assay used membrane homogenates of HEK-293 cells expressing recombinant hMC4r; also called MC4r; hMC4r
T2 sequence (P32245 whole entry): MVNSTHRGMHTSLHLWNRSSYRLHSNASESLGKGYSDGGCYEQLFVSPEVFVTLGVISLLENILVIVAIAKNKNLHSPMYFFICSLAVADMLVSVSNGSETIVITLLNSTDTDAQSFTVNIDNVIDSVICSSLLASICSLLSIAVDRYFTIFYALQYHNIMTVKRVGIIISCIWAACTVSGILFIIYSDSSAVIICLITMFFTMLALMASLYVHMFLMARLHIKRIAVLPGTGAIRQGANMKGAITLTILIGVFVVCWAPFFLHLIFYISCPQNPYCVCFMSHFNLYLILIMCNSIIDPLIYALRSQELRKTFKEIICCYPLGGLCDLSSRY

[6] = molecular target: T1, human melanocortin-1 receptor; assay: [I125]-NDP-α-MSH competition, hMC1r HEK-293 membranes

| Binder | MC-1 Emax (average; cAMP HBL) [4] | Ki [5] | also measured |
| --- | --- | --- | --- |
| Ac-[Nle]EH[dF]R[Dap]W-NH2 (lactam 2-6) [Ac-Nle-cyclo(Glu-His-D-Phe-Arg-Dap)-Trp-NH2] | – | – | Functional - CEREP (EC50; nM) [1]: > 10000 nM; Functional - CEREP (EC50; nM) [2]: > 10000 nM; Functional - CEREP (EC50; nM) [3]: > 10000 nM |
| Cyclohexylacetyl-EH[dF]R[Dab]W-NH2 (lactam 1-5, also called 9.22) [cyclohexyl acetyl-cyclo(Glu-His-D-Phe-Arg-Dab)-Trp-NH2] | 85% | 63 nM | – |
| Ac-FEH[dF]R[Dab]W-NH2 (lactam 2-6, also called 9.13) [Ac-Phe-cyclo(Glu-His-D-Phe-Arg-Dab)-Trp-NH2] | 75% | 510 nM | – |
| PhAc-EH[dF]R[Dab]W-NH2 (lactam 1-5, also called 9.23) [phenyl acetyl-cyclo(Glu-His-D-Phe-Arg-Dab)-Trp-NH2] | 82% | 205 nM | – |
| Cyclohexanecarbonyl-EH[dF]R[Dab]W-NH2 (lactam 1-5, also called 9.20) [cyclo-hexanoyl-cyclo(Glu-His-D-Phe-Arg-Dab)-Trp-NH2] | 79% | 165 nM | – |
| Ac-[Nle]EH[dF]RKW-NH2 (lactam 2-6, also called 9.1) [Ac-Nle-cyclo(Glu-His-D-Phe-Arg-Lys)-Trp-NH2] | 97% | 45 nM | – |
| Pentanoyl-EH[dF]R[Dab]W-NH2 (lactam 1-5, also called 9.16) [CH3-(CH2)3-C(═O)-cyclo(Glu-His-D-Phe-Arg-Dab)-Trp-NH2] | 89% | 365 nM | – |
| Hexanoyl-EH[dF]R[Dab]W-NH2 (lactam 1-5, also called 9.17) [CH3-(CH2)4-C(═O)-cyclo(Glu-His-D-Phe-Arg-Dab)-Trp-NH2] | 90% | 110 nM | – |
| Heptanoyl-EH[dF]R[Dab]W-NH2 (lactam 1-5, also called 9.18) [CH3-(CH2)5-C(═O)-cyclo(Glu-His-D-Phe-Arg-Dab)-Trp-NH2] | 87% | 100 nM | – |
| Hydrocinnamoyl-EH[dF]R[Dab]W-NH2 (lactam 1-5, also called 9.24) [phenyl propanoyl-cyclo(Glu-His-D-Phe-Arg-Dab)-Trp-NH2] | 83% | 285 nM | – |
| Ac-[Nle]EHFR[Dab]W-NH2 (lactam 2-6, also called 9.8) [Ac-Nle-cyclo(Glu-His-Phe-Arg-Dab)-Trp-NH2] | 88% | 10000 nM | – |
| [Suc]HFR[Dab]W-NH2 (lactam N-5; SMILES N=C(N)NCCC[C@@H]1NC(=O)[C@H](Cc2ccccc2)NC(=O)[C@H](Cc2c[nH]cn2)NC(=O)CCC(=O)NCC[C@@H](C(=O)N[C@@H](Cc2c[nH]c3ccccc23)C(N)=O)NC1=O, also called 9.14) [cyclo(Suc-His-Phe-Arg-Dab)-Trp-NH2] | 80% | 10000 nM | Ki [6]: 310 nM; MC-1 EC50 (average; cAMP HBL) [4]: 31 nM |
| Cyclopentylacetyl-EH[dF]R[Dab]W-NH2 (lactam 1-5, also called 9.21) [cyclopentyl acetyl-cyclo(Glu-His-D-Phe-Arg-Dab)-Trp-NH2] | 83% | 93 nM | – |
| Ac-[Nle]CH[dF]RCW-NH2 (disulfide 2-6, also called 9.5) [Ac-Nle-cyclo(Cys-His-D-Phe-Arg-Cys)-Trp-NH2] | 87% | 540 nM | – |
| Cyclopropanecarbonyl-EH[dF]R[Dab]W-NH2 (lactam 1-5; SMILES N=C(N)NCCC[C@@H]1NC(=O)[C@@H](Cc2ccccc2)NC(=O)[C@H](Cc2c[nH]cn2)NC(=O)[C@@H](NC(=O)C2CC2)CCC(=O)NCC[C@@H](C(=O)N[C@@H](Cc2c[nH]c3ccccc23)C(N)=O)NC1=O, also called 9.19) [cyclo-propanoyl-cyclo(Glu-His-D-Phe-Arg-Dab)-Trp-NH2] | 83% | 640 nM | Ki [6]: 3 nM |
| Butyryl-EH[dF]R[Dab]W-NH2 (lactam 1-5, also called 9.15) [CH3-(CH2)2-C(═O)-cyclo(Glu-His-D-Phe-Arg-Dab)-Trp-NH2] | 91% | 890 nM | – |
| Ac-SYSMEHFRWGKPV-NH2 (ligand) [α-MSH (Ac-Ser-Tyr-Ser-Met-Glu-His-Phe-Arg-Trp-Gly-Lys-Pro-Val-NH2)] | – | – | Functional - CEREP (EC50; nM) [3]: > 10000 nM |
